Target: _(SUMO)BMC-HRmm (SUMOylated BMC-H protein of Mycobacterium smegmatis) (Mycobacterium smegmatis)
Test: SEC

stoichiometry N: 6
Substance: _(SUMO)BMC-HRmm (SUMOylated BMC-H protein of Mycobacterium smegmatis) (natural protein)

Source: article PMC6309364
